In this assay the target is GST-DIAPH3-NT. In words: GST pull-down with immunoblot quantification. Particulars: n = 3, parent: est. 1.0, read off a plot. (In general: Immunoblotting shows a protein as a band on a membrane.)

For the substance “MBP-anillin (1–151) wild type (from UniProt Q9NQW6) R41A; Q42A; P43A; L44A”, the ratio to parent (p = 0.0072 vs wt) turned out to be 0.03.

Turning to “MBP-anillin (1–151) wild type (from UniProt Q9NQW6) Q42A”, the ratio to parent turned out to be 0.82.

With “MBP-anillin (1–151) wild type (from UniProt Q9NQW6) K38A; R39A”, the ratio to parent was 0.94. On to “MBP-anillin (1–151) wild type (from UniProt Q9NQW6) P43A; L44A”, for which the ratio to parent is 0.38.

In the case of “MBP-anillin (1–151) wild type (from UniProt Q9NQW6) R41A”, the ratio to parent was found to be 0.59.

The values above are taken from PMC5691081.
